Test results as given in JP2014195458A (dated 2014).

Tests used:
[1] = molecular target: T1, recombinant human interleukin-6 (human, UniProt P05231 30-212); assay: cell-based or functional assay
T1 construct: Recombinant human IL-6 came from several suppliers; also called IL-6; rhIL-6

[2] = molecular target: T1, recombinant human interleukin-6; assay: Luminex-based assay of IL-6 binding to IL-6 receptor
[3] = molecular target: T1, recombinant human interleukin-6; assay: solid-phase ELISA on coated rIL-6 and solid-phase RIA with 125I-rIL-6, hybridoma supernatant

T1 sequence (P05231 30-212 limits assumed): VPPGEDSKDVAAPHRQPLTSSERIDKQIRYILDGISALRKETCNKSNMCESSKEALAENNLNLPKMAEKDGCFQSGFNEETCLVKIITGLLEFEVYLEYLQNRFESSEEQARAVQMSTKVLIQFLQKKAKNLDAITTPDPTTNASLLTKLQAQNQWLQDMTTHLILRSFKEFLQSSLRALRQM

B1: mouse anti-IL-6 monoclonal antibody CLB-8 (antibody, V domains shown)
VH: EVQLVESGGKLLKPGGSLKLSCAASGFTFSSFAMSWFRQSPEKRLEWVAEISSGGSYTYYPDTVTGRFTISRDNAKNTLYLEMSSLRSEDTAMYYCARGLWGYYALDYWGQGTSVTVSS
VL: QIVLIQSPAIMSASPGEKVTMTCSASSSVSYMYWYQQKPGSSPRLLIYDTSNLASGVPVRFSGSGSGTSYSLTISRMEAEDAATYYCQQWSGYPYTFGGGTKLEIK
notes: also called CLB-IL6-8; CLB.IL-6/8
B1 was tested, and the IL−6依存性7TD1細胞増殖バイオアッセイ [1] was 100%, the IL−6誘発性細胞増殖の阻害 (7TD1 cells, ATP luminescence), EC 50 [1] was 7.2 ng/mL and the percent inhibition of IL-6 binding to IL-6 receptor [2] was 100%. B1: binds [3].
